Substitutions are numbered along the chain they refer to.
B1: TCR 3 (ADB02780_025) (TCR, V domains shown)
V domain 1: GQQLNQSPQSMFIQEGEDVSMNCTSSSIFNTWLWYKQDPGEGPVLLIALYKAGELTSNGRLTAQFGITRKDSFLNISASIPSDVGIYFCAGQASGTYKYIFGTGTRLKVLA
V domain 2: EAQVTQNPRYLITVTGKKLTVTCSQNMNHEYMSWYRQDPGLGLRQIYYSINVEVTDKGDVPEGYKVSRKEKRNFPLILESPSPNQTSLYFCASSHGTSGEQYFGPGTRLTVT
B2: TCR 8 (ADB02780_106) (TCR, V domains shown)
V domain 1: B1 V domain 1 with N30A
V domain 2: B1 V domain 2
B3: TCR 4 (ADB02780_062) (TCR, V domains shown)
V domain 1: B1 V domain 1 with N30L
V domain 2: B1 V domain 2
B4: TCR 5 (ADB02780_063) (TCR, V domains shown)
V domain 1: B1 V domain 1 with N30E
V domain 2: B1 V domain 2
B5: TCR 9 (ADB02780_107) (TCR, V domains shown)
V domain 1: B1 V domain 1 with N30M
V domain 2: B1 V domain 2
B6: TCR 7 (ADB02780_077) (TCR, V domains shown)
V domain 1: B1 V domain 1 with N30H
V domain 2: B1 V domain 2
B7: TCR 6 (ADB02780_070) (TCR, V domains shown)
V domain 1: B1 V domain 1 with N30V
V domain 2: B1 V domain 2

Target: complex of PRAME peptide … (SEQ ID NO: 1) and HLA-A*02:01, presented on peptide-pulsed T2 cells (human)
Assay: cell-based or functional assay

| Binder | EC50 (peptide concentration required to induce half-maximal T-cell activation; IFNγ supernatant ELISA, transduced primary T cells with peptide-pulsed T2 cells) [log10 M] |
| --- | --- |
| B1 | -7.8 |
| B2 | -7.8 |
| B3 | -8.7 |
| B4 | -8.8 |
| B5 | -7.8 |
| B6 | -8.7 |
| B7 | -8.8 |

Source: patent US20260232800A1 (ADAPTIMMUNE, published 2026)
